For this data set the following is noted: Streptomyces albogriseolus, Thermal, DSC, reversible: yes (70-85%), whole UniProt chain shown.

Broadly, the Tm is the temperature at the midpoint of the melting transition.

B1: Subtilisin inhibitor wild type, P01006 (protein)
chain: MRNTGAGPSPSVSRPPPSAAPLSGAALAAPGDAPSALYAPSALVLTVGKGVSATTAAPERAVTLTCAPGPSGTHPAAGSACADLAAVGGDLNALTRGEDVMCPMVYDPVLLTVDGVWQGKRVSYERVFSNECEMNAHGSSVFAF
B1: the Tm runs as follows: (pH 2.9, glycine 25 mM) 44.5 °C; (pH 2.94, glycine 25 mM) 43.9 °C; (pH 2.98, glycine 25 mM) 45.4 °C; (pH 3.03, glycine 25 mM) 47.8 °C; (pH 3.04, glycine 25 mM) 47.6 °C; (pH 3.07, glycine 25 mM) 48.8 °C. The Tm reads like this: (pH 3.12, glycine 25 mM) 50.5 °C; (pH 3.15, glycine 25 mM) 51.3 °C; (pH 3.16, glycine 25 mM) 52.2 °C; (pH 3.2, glycine 25 mM) 53.6 °C; (pH 3.21, glycine 25 mM) 53.4 °C; (pH 3.24, glycine 25 mM) 54.3 °C. Further, the melting temperature (Tm) (pH 3.25, glycine 25 mM) is 55.7 °C; the Tm (pH 7, phosphate 25 mM) worked out at 82 °C; the Tm (pH 9.2, glycine 25 mM) turned out to be 80.1 °C; the Tm (pH 9.75, glycine 25 mM) is 80.2 °C.

The values are drawn from FireProtDB (doi:10.1021/bi00252a018).
